Results as given in the nanobody polyreactivity screen of Harvey et al. (2022).

assay: yeast display, Sf9 membrane polyspecificity reagent, FACS + sequencing; frameworks hold sequencing errors
How it was run: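 Galactose-induced (36–48 hours) yeast carrying a synthetic nanobody display library were exposed to 10% biotinylated, detergent-solubilized Sf9 membrane reagent at 4 °C for 1 hour. FACS followed streptavidin microbead enrichment, using low and high (top ~1%) gates for expression (anti-HA) and reagent binding (streptavidin). Colony PCR, MiSeq 2 × 250 sequencing and CDR-length filtering followed. Labels for polyreactivity reflect the gate of origin.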

Row | Sequence | polyreactivity (PSR sort gate)
1 | QVQLVESGGGLEQAGGSLRLSCAASGGTFARYVMGWYRQAPGKERELVAAITSGGRTYYADSVKGRFTISRDNAKNTVYLQMNSLKPEDTAVYYCATAPRRRATSYYYWGQGTQVTVSS | high polyreactivity
2 | QVQLVESGGGLFQAGGILRLSCAASGFTFERNDMGWYRQAPGKERELVATISQSGTNTYYADSVKGRFTISRDNAKNTVYVQMNSMKPEDTAVYYCNARYIFYRYDYWGHGTQVTVSS | low polyreactivity
3 | QVQLVESGGGLFQAGGRLRLSCASSGYTFDYYTMAWYRQAPGKERELVARITASGGSTYYADSVKGRFTISRDNAKNTVYLQMNSLKPEDTAVYYCAADYWWYTGYDYWGQGTQVTVSS | high polyreactivity
4 | QVQLVESGGGLFQAGGSLRISCAASGFIFSFYAMGWYRQAPGKERELVAAITSSGATTYYADSVKGSFTISRDNAKNTVYLQMNSLKPEDTAVYYCNAVYRRDTGYYRYYYWGQGTQVTVSS | high polyreactivity
5 | QVQLVESGGGLFQAGGSLRISCAASGSIFRSYAMGWYRQAPGKERELVASISRRGGSTYYADSVKGRFTISRDNAKNTVYLQMNSLKPEDTAVYYCAAVRYNSRVSTTPSEMYYWGQGTQVTVSS | low polyreactivity
6 | QVQLVESGGGLFQAGGSLRISCAASGSTFRGYVMGWYRQAPGKERELVAAISRSGTSTYYADSVKGRFTISRDNAKNTVYLQMNSLKPEDTAVYYCAAQLYGHGEDYWGQGTQVTVSS | high polyreactivity
7 | QVQLVESGGGLFQAGGSLRLICAASGNIFKSYTMGWYRQAPGKERELVAAITSGGRTNYADSVKGRFTISRDNAKNTVYLQMNSLKPEDTAVYYCNAYKVFWVSIRYKFDYWGQGTQVTVSS | high polyreactivity
8 | QVQLVESGGGLFQAGGSLRLICAASGSTFLNNAMGWYRQAPGKERELVAAISYRGGSTYYADSVKGRFTISRDNAKNTVYLQMNSLKPEDTAVYYCAAEVTRFWWRSPYDYNYWGQGTQVTVSS | high polyreactivity
9 | QVQLVESGGGLFQAGGSLRLSCAASATTFGVNAMGLYRQATGKERELVAAITVSAGSTYYADSVKGRFTISRDNAQNTVYLQMNSMKPEDSAVYYCAAEEREWRTDIYDYWGQGTQVTVSS | low polyreactivity
10 | QVQLVESGGGLFQAGGSLRLSCAASGFIFAWYAMGWSRQAPGKERELVATISSSGARTYYADSVKGRFTISRDNAKNTVYLQLNRLKPEDTAVYYCASVYSTLGVGYYYWGQGTQVTVSS | high polyreactivity
11 | QVQLVESGGGLFQAGGSLRLSCAASGFIFRPYGMGWYRQAPGKERELVAAISWSGDRTYYADSVKGRFTISRDNAKNTVYLQMNSLKPEDTAVYYCAADGVTRDYDYWGQGNQVTVSS | low polyreactivity
12 | QVQLVESGGGLFQAGGSLRLSCAASGFIFYDNAIGWYRQAPGKERELVASISVSGGSTYYADSVKGRFTISRDKAKNTVYLHMNSLKAEDTAVYYCAASYRDGHIRHDYWGQGTQVTVSS | low polyreactivity
13 | QVQLVESGGGLFQAGGSLRLSCAASGFISSGNTMAWYRQAPGKERELVAAISGSGGRTYYADSVKGRFTISRDNAKNTVYLQMNSLKPEDTAVYYCATPLQQLYGYWGQGTQVTVSS | low polyreactivity
14 | QVQLVESGGGLFQAGGSLRLSCAASGFIVRRYAMGWYRQAPGKEREMVAAITSGGGRTYYADSVKGRYTISRDNAKYTVNLEMISLKPEDTGVYDCARVQRCDYDYWGQGTQVTVSS | high polyreactivity
15 | QVQLVESGGGLFQAGGSLRLSCAASGFTFPAYNMGWYRQAPRKEMEMVAAITSSGGNTYYADSVKGRFTISRHNAKNTVYLQMNSLKPEDTAVYYWATFSVRWPSNDHVRYDYWGHGTQVTVSS | low polyreactivity
16 | QVQLVESGGGLFQAGGSLRLSCAASGIIFVRNAMGWSRQAPGKERELVAAITPSGGSTYYADSVKGRFTISRDNAKNTVYLQMNSLKPEDTAVYYCAAPYRYRSLYDNWGQGSQVTVSS | high polyreactivity
17 | QVQLVESGGGLFQAGGSLRLSCAASGITFAQYAMGWYRQAPGKDRELVAVISSGGSTNYADSVKGRFTISRDNAKNTVYLQMNSMKPEDTAVYYCNADEAAPVYSYYYWGQGTQVTVSS | low polyreactivity
18 | QVQLVESGGGLFQAGGSLRLSCAASGITFTRYAMGWYRQAPGKEREFVAAIRRSGGNTYYADSVKGRFTISRDNAKNTVYLQMNSLNPEDTAVYYCAASLRKTSPTRLVDYWGQGTQVTVSS | low polyreactivity
19 | QVQLVESGGGLFQAGGSLRLSCAASGITLAYNAMGWYRQAPGKEREFVAAIDVSGGRTYYADSVKVRFTISRDKSKNTVNLQMNSLNPEDTAVYYCAADVAEFSVGYWQDYDYWGQGTQVTVSS | low polyreactivity
20 | QVQLVESGGGLFQAGGSLRLSCAASGLTFYVYAMGWYRQAPGKERELVAAITQNGGTTYYADSVKGRFTISRDNAKNTVYLQMNSLKPEDTAVYYCAAGNRSLGGRLYRYYYWGQGTLVTVSS | high polyreactivity
21 | QVQLVESGGGLFQAGGSLRLSCAASGNIFVDYDMGWYRQAPGKERELDATITGTGDSTTYADSVKGRFTISRDIAKNTVYLQMNSLKPEDTAVYYCNTDLRLVYRTKGFISWGYDYWGQGTQVTVSS | low polyreactivity
22 | QVQLVESGGGLFQAGGSLRLSCAASGRIFSYNNMGWYRQAPGKERELVAAISTSGGSTYYADSVKGRFTLSRDNAKNTVYLQMNSLKPEDTAVYYCNTVWTFRTSTNYDYWGQVTQVTVSS | low polyreactivity

Row | Sequence | polyreactivity (PSR sort gate)
23 | QVQLVESGGGLFQAGGSLRLSCAASGRIYPTYTMGWYRQAPGKERQLVAAINRGGGSTYYADSVKGRFTISRDYAKNTVYLQMICLKPEDTAVYYCNARTYYRSYGYDYWGQGTQVTVSS | low polyreactivity
24 | QVQLVESGGGLFQAGGSLRLSCAASGRTFQVNAMAWYRHAPGKERELVAAISASDGSTYADSVKGRFTISRDNAKNTVYLQMNSLKPEDTAVYYCNKADYGGHRTSEQVGWVYLYDYWGQGTQVTVSS | low polyreactivity
25 | QVQLVESGGGLFQAGGSLRLSCAASGRTFVKYDMGWYRHAPGKERELVAAISRRGGSTYYADSVKGRFTISRDNAKNTVYLQMNSLKPEDTAVYYCNAVHPKDVDSYRDRDYWGQGTQVTVSS | high polyreactivity
26 | QVQLVESGGGLFQAGGSLRLSCAASGSIFTKYAMGWYRQAPGKERELVAAISQGGASTRYADSVKGRFTISRDNAKKTVYLQMNSLKPEDTAVYYCAAKSRHFWMDYWGQATQVTVSS | high polyreactivity
27 | QVQLVESGGGLFQAGGSLRLSCAASGSIFWPNTMGWYRQAPGKERELVATISSGGDTSYADSVKGRFTISRDNEKNTVYLQMNSLKPEDTAVYYLAKSITVDDVHPRALTYNYWGQGTQVTVSS | low polyreactivity
28 | QVQLVESGGGLFQAGGSLRLSCAASGSTFGWYGMGWYRHAPGKERELVAAISLSDGGTYYADSVKGRFTISRDNAKNTVYLQMNSLKPEDTAVYYCAADYYDSGWYGYWGQGTQVTVSS | high polyreactivity
29 | QVQLVESGGGLFQAGGSLRLSCAASGSTFHYNNMGWYRQAPGKERELVAAISWLGDPTYYADSVKGRFTISRDNAKNTVYLQMNSLKPEDTSVYFCNAVRLSRYRPNPFGYGHWGQGTQVTVSS | high polyreactivity
30 | QVQLVESGGGLFQAGGSLRLSCAASGSTFVKYAMGRSRPAPAKERELVAAINRSGASTYYADSVKGRFTISRDNATNTVNLQMISLKPEDTAVYYCAARFSWLGYYWGQGTQETVSS | high polyreactivity
31 | QVQLVESGGGLFQAGGSLRLSCAASGSTLGSNAMGWYRQAPGKERELVAAITWSGGTTYYADSLKGRFTISRDNAKNTVYLQMNSLKPEDTAVYYCAPGQSVIYRYEFWGQGTQVTVSS | low polyreactivity
32 | QVQLVESGGGLFQAGGSLRLSCAASGSTLRDYVMGWYRQAPGKERELVAAISWTGDRTYYADSVKGRFTISRDNAKNTVYLQMNSLKPEDTAVYYCNAVYHVTRQGNLDSWGQGTQVTVSS | low polyreactivity
33 | QVQLVESGGGLFQAGGSLRLSCAASVITFSQYVMGWYRQAPGKERELVAAISYRGGTTYYADSVKGRFTISRDNAKNTVYLQMISLKPEDTAVYYCATLPQRQYSTRDYWGQGTQVTVSA | high polyreactivity
34 | QVQLVESGGGLFQAGGSLRLSCAPSGFTFSWYDMGWYRQAPGKERELVAAISLSGDRTYYADSVKGRFTISRDNAKNTVYLQMNSLKPEDTAVYYCAADERVDQCWIRMDYWGQGTQVTVSS | low polyreactivity
35 | QVQLVESGGGLFQAGGSLRLSCAPSGIFRYYVMGWYIQAPGKERELVAAISWGGGSTYYADSVKGRFTISRDNPKNTVYLQMNSLKPEDTAVYYCAARDLRKLYSRYPYYYWGQGTQVTVSS | high polyreactivity
36 | QVQLVESGGGLFQAGGSLRLSCAPSGNNFYGNDMGWYRQAPGKERDLVAAISRGGSTYYADSVKGRFTSSRDNAMNTVYLQMNSLKPEDSEVFYCAADYAYTTISWDDYWGQGTLVTVSS | low polyreactivity
37 | QVQLVESGGGLFQAGGSLRLSCASSGFIFVRYAMGWYIQAPGKERELVAGINSGGSTSYADSVKGRFTISRDNAKNSVYLQMNSLKPEDTAVYYCAAAKFRRGTRYYYCGQGTQVTVSS | high polyreactivity
38 | QVQLVESGGGLFQAGGSLRLSCDASGRNFSGNAMGMYRQAPGKERELVAAITWSGSSTFYADSVKGLFTISRDYAKNTVYFQMNSLKPEDTAVYYCAVDSSSPVRPHSDEDYWGQGTQVTVSS | low polyreactivity
39 | QVQLVESGGGLFQAGGSLRLSSAASGSIFHPYAMGWYRQAPGKERELVAAISSSTGRTYYADYVKGRFTISRDNAKNTVYLQMNSLKPEDTAVYYCAARKKYSEFDYWGQGTQVTVSS | high polyreactivity
40 | QVQLVESGGGLFQAGGSLRLTCAASGSTISDYAIGWYRQAPGKERELVAAISTRGGSTYYADSVKGRFTISRDNAKNTVYLQMNSLKPEDTAVYYCAKGGYVPKLEYWGQGTQVTVSS | high polyreactivity
41 | QVQLVESGGGLFQAGRSLRLSCAASGITFGYYGMGWYRQAPVKERELVATISQRGGSTYYAVSVKGRFTISRDNAKNTVYLQMNSLKPEDTAFYYSNADAYRYYDYDLLFHYDYWGQGTQVTVSS | low polyreactivity
42 | QVQLVESGGGLFQEGGSLRLSCAASGIISKYYAMGWYRQAPGKERELVAAITRSGTSTYYADSVKGRFTISRDNAKNSVYLQMNSLKPEDTAVYYCAAVSGGRTPRYDYWGQGTQVTVSS | high polyreactivity
43 | QVQLVESGGGLFQEGGSLRLSCAASGRIFSYYAMGWYRQAPGKERELVAGISSGGRTNYADSVKGRFTISRDNAKNTVYLQMNSLKPEDTAVYYCIARSFSLYWAYNYWGQGTQVTVSL | high polyreactivity
